Test in all cases: two-hybrid
For assay [1], the target named is SUMO (small ubiquitin-like modifier, encoded by pmt3) (fission yeast (Schizosaccharomyces pombe)) (UniProt O13351).
The target of assay [2] is chimeric protein SUMO-Tpz1(243-420) (fission yeast (Schizosaccharomyces pombe)) (UniProt O14246).
Assay [3] concerns the target Tpz1 (fission yeast (Schizosaccharomyces pombe)) (UniProt O14246).

Chain of UniProt O14246 (O14246 whole entry): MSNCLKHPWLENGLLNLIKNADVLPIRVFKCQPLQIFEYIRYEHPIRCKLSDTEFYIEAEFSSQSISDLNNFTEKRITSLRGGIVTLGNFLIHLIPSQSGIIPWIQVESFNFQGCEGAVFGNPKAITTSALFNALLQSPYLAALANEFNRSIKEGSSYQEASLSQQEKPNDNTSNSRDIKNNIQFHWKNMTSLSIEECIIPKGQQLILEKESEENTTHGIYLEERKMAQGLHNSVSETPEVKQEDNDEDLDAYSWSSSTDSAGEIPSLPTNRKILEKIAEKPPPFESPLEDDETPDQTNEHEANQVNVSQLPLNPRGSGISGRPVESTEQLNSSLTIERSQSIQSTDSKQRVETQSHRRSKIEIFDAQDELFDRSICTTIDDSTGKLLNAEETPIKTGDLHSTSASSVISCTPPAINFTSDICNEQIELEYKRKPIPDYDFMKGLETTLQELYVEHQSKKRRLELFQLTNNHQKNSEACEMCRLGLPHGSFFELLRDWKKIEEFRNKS
Chain of UniProt O13351 (O13351 whole entry): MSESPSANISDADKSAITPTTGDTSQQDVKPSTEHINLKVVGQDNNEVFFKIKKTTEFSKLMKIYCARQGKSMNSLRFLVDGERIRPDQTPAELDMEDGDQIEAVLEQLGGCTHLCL

Take “Ten1Stn1 fusion protein (Ten1, Gly15 linker, Stn1)”: the β-galactosidase activity (two-hybrid) (β-galactosidase U) turned out to be 50 in assay [1], 50 in assay [2] and 7 in assay [3].

These data come from PMC5955624.
